According to article PMC12078605:
Where “and” joins values, the source holds several entries; their conditions need not be identical. Identical values can stand only once.

Target: Shiga toxin 2a B-subunit (StxB2a) (E. coli (endogenous in STEC/EHEC strains TS18/08, LB226692, HUSEC003, HUSEC004, HUSEC008, HUSEC018))
Assay: native gel or EMSA

In the case of “Shiga toxin 2a B-subunit (StxB2a) (natural protein)”, the stoichiometry N is reported as 2 and 3 and 5.
